Our source for the Kd values is PMC2763025 (Insect biochemistry and molecular biology, 2009).

In this assay the target is Cry11Aa toxin, trypsin-activated (Bacillus thuringiensis subsp. …, UniProt P21256 1-643). Put plainly: ELISA.

B1: truncated AaeAPN1 fragment AaeAPN1t (amino acids 525-778) (domain or fragment)
chain: RTYETGDIIISQERFISDRKVPNTNVWMIPYNYVHQSKADFDDLSTFSWLSTKAARINTEVPANEWIIFNKQQVGYYRVNYDANNWELITNALINNLSSIDRLNRAQLIDDAYWLARSGRLDIEVLMKLLTYLKDETEYAPWTAANNVLSYFNGKLRGTPAYKDFTTMVDHLIKKVYKTLDVTAVSDTEPLLHKYLKQTISTWACLIGNEDCLKRTKEALQKEVTEGIPVHPDVATVVYCNGLRTADVAEYQYL
Take B1: the Kd came out at 8.5 nM.
